According to patent US20230265151A1, “GIP/GLP1 CO-AGONIST COMPOUNDS” (priority 2020, published 2023):
Changes are numbered by the printed parent chain. *1 amine or outer side, *2 acyl side, *3 side chain or, on linkers, in order; H or OH if unused. Where no end group is shown, it is not given here. Side-chain parts run from the residue outwards. [ ]: non-standard residue; d: D form. The star is where a group is joined. αMePhe(2-F) = C[C@](N)(Cc1ccccc1F)C(=O)O; γGlu = O=C(O)[C@H](CCC(=O)[*:2])N[*:1]; C14 diacid = O=C(O)CCCCCCCCCCCCC(=O)*; αMeY = C[C@](N)(Cc1ccc(O)cc1)C(=O)O; αMeL = CC(C)C[C@](C)(N)C(=O)O; Nle = CCCC[C@H](N)C(=O)O; Orn = NCCC[C@H](N)C(=O)O; AEEA = NCCOCCOCC(=O)O; Aib = CC(C)(N)C(=O)O

Assays:
Experiment in all cases: cell-based or functional assay
[1] = target: human glucagon receptor (human, UniProt P47871 26-477)
[2] = target: T1, human glucose-dependent insulinotropic polypeptide (GIP) receptor (human, UniProt P48546 22-466)
T1 sequence (looked up): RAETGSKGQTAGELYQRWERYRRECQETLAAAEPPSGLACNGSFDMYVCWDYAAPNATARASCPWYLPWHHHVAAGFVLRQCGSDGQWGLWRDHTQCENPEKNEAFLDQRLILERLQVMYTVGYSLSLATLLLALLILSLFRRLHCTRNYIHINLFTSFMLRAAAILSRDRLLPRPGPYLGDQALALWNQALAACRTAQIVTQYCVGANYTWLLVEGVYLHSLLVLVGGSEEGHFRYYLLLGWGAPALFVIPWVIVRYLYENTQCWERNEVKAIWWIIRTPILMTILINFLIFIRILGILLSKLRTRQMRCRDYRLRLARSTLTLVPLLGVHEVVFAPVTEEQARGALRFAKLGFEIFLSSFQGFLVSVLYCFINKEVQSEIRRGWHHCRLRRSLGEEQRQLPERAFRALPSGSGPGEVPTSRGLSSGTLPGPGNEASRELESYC

[3] = target: human glucagon-like peptide-1 (GLP-1) receptor (human, UniProt P43220 24-463)

B1: Example 260 (peptide)
peptide: YXEGTXTSDXSIXLDXKAQXEFIXXLIKGGPSSGAPPPS
modifications: Aib2, αMeF(2F)6, OMeY10, αMeL13, Orn16, K17(Z), Aib20, D-Glu24, αMeY25, K28(Z), C-terminal NH2; Z = AEEA2-(γ-Glu)-CO-(CH2)12-CO2H
[1]
  cAMP EC50: > 9.95 µM
[2]
  cAMP EC50: 0.0239 nM
[3]
  cAMP EC50: 0.547 nM

B2: Example 261 (peptide)
peptide: YXEGTXTSDXSIXLDXKAQXEFIXXLIEGGPSSGAPPPSK
modifications: Aib2, αMeF(2F)6, OMeY10, αMeL13, Orn16, K17(Z), Aib20, D-Glu24, αMeY25, K40(Z), C-terminal NH2; Z = AEEA2-(γ-Glu)-CO-(CH2)12-CO2H
[1]
  cAMP EC50: > 9.95 µM
[2]
  cAMP EC50: 0.025 nM
[3]
  cAMP EC50: 0.531 nM

B3: Example 262 (peptide)
peptide: B1 peptide with K17I, X24K
modifications: Aib2, αMeF(2F)6, OMeY10, αMeL13, Orn16, Aib20, K24(Z), αMeY25, K28(Z), C-terminal NH2; Z = AEEA2-(γ-Glu)-CO-(CH2)12-CO2H
[1]
  cAMP EC50: > 9.95 µM
[2]
  cAMP EC50: 0.0327 nM
[3]
  cAMP EC50: 0.472 nM

B4: Example 263 (peptide)
peptide: B1 peptide with K17I, E21K
modifications: Aib2, αMeF(2F)6, OMeY10, αMeL13, Orn16, Aib20, K21(Z), D-Glu24, αMeY25, K28(Z), C-terminal NH2; Z = AEEA2-(γ-Glu)-CO-(CH2)12-CO2H
[1]
  cAMP EC50: > 9.95 µM
[2]
  cAMP EC50: 0.0214 nM
  cAMP Emax: 88.6%
[3]
  cAMP EC50: 0.294 nM

B5: Example 264 (peptide)
peptide: B2 peptide with K17I, E21K
modifications: Aib2, αMeF(2F)6, OMeY10, αMeL13, Orn16, Aib20, K21(Z), D-Glu24, αMeY25, K40(Z), C-terminal NH2; Z = AEEA2-(γ-Glu)-CO-(CH2)12-CO2H
[1]
  cAMP EC50: > 9.95 µM
[2]
  cAMP EC50: 0.0208 nM
  cAMP Emax: 114%
[3]
  cAMP EC50: 0.413 nM

B6: Example 265 (peptide)
peptide: B1 peptide with E21K, K28E
modifications: Aib2, αMeF(2F)6, OMeY10, αMeL13, Orn16, K17(Z), Aib20, K21(Z), D-Glu24, αMeY25, C-terminal NH2; Z = AEEA2-CO-(CH2)12-CO2H
[1]
  cAMP EC50: > 9.95 µM
[2]
  cAMP EC50: 0.0145 nM
[3]
  cAMP EC50: 0.262 nM

B7: Example 266 (peptide)
peptide: B1 peptide
modifications: Aib2, αMeF(2F)6, OMeY10, αMeL13, Orn16, K17(Z), Aib20, D-Glu24, αMeY25, K28(Z), C-terminal NH2; Z = AEEA2-CO-(CH2)12-CO2H
[1]
  cAMP EC50: > 9.95 µM
[2]
  cAMP EC50: 0.0136 nM
[3]
  cAMP EC50: 0.282 nM
  cAMP Emax: 90.5%

B8: Example 267 (peptide)
peptide: B2 peptide
modifications: Aib2, αMeF(2F)6, OMeY10, αMeL13, Orn16, K17(Z), Aib20, D-Glu24, αMeY25, K40(Z), C-terminal NH2; Z = AEEA2-CO-(CH2)12-CO2H
[1]
  cAMP EC50: > 9.95 µM
[2]
  cAMP EC50: 0.0162 nM
[3]
  cAMP EC50: 0.271 nM

B9: Example 268 (peptide)
peptide: B2 peptide with K17I, E21K
modifications: Aib2, αMeF(2F)6, OMeY10, αMeL13, Orn16, Aib20, K21(Z), D-Glu24, αMeY25, K40(Z), C-terminal NH2; Z = AEEA2-CO-(CH2)12-CO2H
[1]
  cAMP EC50: > 9.95 µM
[2]
  cAMP EC50: 0.0265 nM
[3]
  cAMP EC50: 0.613 nM

B10: Example 269 (peptide)
peptide: Y[Aib]EGT[αMePhe(2-F)]TSD[Nle]SI[αMeL]LD[Orn]IAQ[Aib]EFIK([AEEA-AEEA-γGlu-C14 diacid])[αMeY]LIK([AEEA-AEEA-γGlu-C14 diacid])GGPSSGAPPPS-NH2
modifications: N-terminus assumed
SMILES: CCCC[C@H](NC(=O)[C@H](CC(=O)O)NC(=O)[C@H](CO)NC(=O)[C@@H](NC(=O)[C@](C)(Cc1ccccc1F)NC(=O)[C@@H](NC(=O)CNC(=O)[C@H](CCC(=O)O)NC(=O)C(C)(C)NC(=O)[C@@H](N)Cc1ccc(O)cc1)[C@@H](C)O)[C@@H](C)O)C(=O)N[C@@H](CO)C(=O)N[C@H](C(=O)N[C@@](C)(CC(C)C)C(=O)N[C@@H](CC(C)C)C(=O)N[C@@H](CC(=O)O)C(=O)N[C@@H](CCCN)C(=O)N[C@H](C(=O)N[C@@H](C)C(=O)N[C@@H](CCC(N)=O)C(=O)NC(C)(C)C(=O)N[C@@H](CCC(=O)O)C(=O)N[C@@H](Cc1ccccc1)C(=O)N[C@H](C(=O)N[C@@H](CCCCNC(=O)COCCOCCNC(=O)COCCOCCNC(=O)CC[C@H](NC(=O)CCCCCCCCCCCCC(=O)O)C(=O)O)C(=O)N[C@@](C)(Cc1ccc(O)cc1)C(=O)N[C@@H](CC(C)C)C(=O)N[C@H](C(=O)N[C@@H](CCCCNC(=O)COCCOCCNC(=O)COCCOCCNC(=O)CC[C@H](NC(=O)CCCCCCCCCCCCC(=O)O)C(=O)O)C(=O)NCC(=O)NCC(=O)N1CCC[C@H]1C(=O)N[C@@H](CO)C(=O)N[C@@H](CO)C(=O)NCC(=O)N[C@@H](C)C(=O)N1CCC[C@H]1C(=O)N1CCC[C@H]1C(=O)N1CCC[C@H]1C(=O)N[C@@H](CO)C(N)=O)[C@@H](C)CC)[C@@H](C)CC)[C@@H](C)CC)[C@@H](C)CC
[1]
  cAMP EC50: > 9.95 µM
[2]
  cAMP EC50: 0.0335 nM
[3]
  cAMP EC50: 1.72 nM

B11: Example 270 (peptide)
peptide: B1 peptide with K17I, X24K
modifications: Aib2, αMeF(2F)6, hTyr10, αMeL13, Orn16, Aib20, K24(Z), αMeY25, K28(Z), C-terminal NH2; Z = AEEA2-(γ-Glu)-CO-(CH2)12-CO2H
[1]
  cAMP EC50: > 9.95 µM
[2]
  cAMP EC50: 0.0567 nM
[3]
  cAMP EC50: 0.551 nM

B12: Example 271 (peptide)
peptide: B1 peptide with E21K, K28E
modifications: Aib2, αMeF(2F)6, Nle10, αMeL13, Orn16, K17(Z), Aib20, K21(Z), D-Glu24, αMeY25, C-terminal NH2; Z = AEEA2-CO-(CH2)12-CO2H
[1]
  cAMP EC50: > 9.95 µM
[2]
  cAMP EC50: 0.0186 nM
[3]
  cAMP EC50: 0.494 nM

B13: Example 272 (peptide)
peptide: B1 peptide with E21K, K28E
modifications: Aib2, αMeF(2F)6, hTyr10, αMeL13, Orn16, K17(Z), Aib20, K21(Z), D-Glu24, αMeY25, C-terminal NH2; Z = AEEA2-CO-(CH2)12-CO2H
[1]
  cAMP EC50: > 9.95 µM
[2]
  cAMP EC50: 0.0264 nM
[3]
  cAMP EC50: 0.388 nM

B14: Example 273 (peptide)
peptide: B2 peptide
modifications: Aib2, αMeF(2F)6, 4Pal10, αMeL13, Orn16, K17(Z), Aib20, D-Glu24, αMeY25, K40(Z), C-terminal NH2; Z = AEEA2-(γ-Glu)-(10-(4-carboxyphenoxy)decanoyl)
[1]
  cAMP EC50: > 9.95 µM
[2]
  cAMP EC50: 0.0166 nM
[3]
  cAMP EC50: 2.08 nM

B15: Example 274 (peptide)
peptide: B1 peptide with K17I, X24K
modifications: Aib2, αMeF(2F)6, 4Pal10, αMeL13, Orn16, Aib20, K24(Z), αMeY25, K28(Z), C-terminal NH2; Z = AEEA2-(γ-Glu)-(10-(4-carboxyphenoxy)decanoyl)
[1]
  cAMP EC50: > 9.95 µM
[2]
  cAMP EC50: 0.0226 nM
[3]
  cAMP EC50: 0.406 nM

B16: Example 275 (peptide)
peptide: B1 peptide with K17I, E21K
modifications: Aib2, αMeF(2F)6, 4Pal10, αMeL13, Orn16, Aib20, K21(Z), D-Glu24, αMeY25, K28(Z), C-terminal NH2; Z = AEEA2-(γ-Glu)-(10-(4-carboxyphenoxy)decanoyl)
[1]
  cAMP EC50: > 9.95 µM
[2]
  cAMP EC50: 0.0152 nM
[3]
  cAMP EC50: 0.737 nM

B17: Example 276 (peptide)
peptide: B2 peptide with K17I, E21K
modifications: Aib2, αMeF(2F)6, 4Pal10, αMeL13, Orn16, Aib20, K21(Z), D-Glu24, αMeY25, K40(Z), C-terminal NH2; Z = AEEA2-(γ-Glu)-(10-(4-carboxyphenoxy)decanoyl)
[1]
  cAMP EC50: > 9.95 µM
[2]
  cAMP EC50: 0.0134 nM
[3]
  cAMP EC50: 0.49 nM
